Test results from patent US20180022822A1 (MABIMMUNE DIAGNOSTICS, published 2018).

Experiments:
[1] = biological target: T1, recombinant human Fibroblast Activation Protein (FAP) with N-terminus 6x histidine tag (human, UniProt Q12884 26-760); assay: direct ELISA: rFAP directly coated (FAP)
T1 construct: Bought protein; also called rFAP; rhFAP
T1 sequence: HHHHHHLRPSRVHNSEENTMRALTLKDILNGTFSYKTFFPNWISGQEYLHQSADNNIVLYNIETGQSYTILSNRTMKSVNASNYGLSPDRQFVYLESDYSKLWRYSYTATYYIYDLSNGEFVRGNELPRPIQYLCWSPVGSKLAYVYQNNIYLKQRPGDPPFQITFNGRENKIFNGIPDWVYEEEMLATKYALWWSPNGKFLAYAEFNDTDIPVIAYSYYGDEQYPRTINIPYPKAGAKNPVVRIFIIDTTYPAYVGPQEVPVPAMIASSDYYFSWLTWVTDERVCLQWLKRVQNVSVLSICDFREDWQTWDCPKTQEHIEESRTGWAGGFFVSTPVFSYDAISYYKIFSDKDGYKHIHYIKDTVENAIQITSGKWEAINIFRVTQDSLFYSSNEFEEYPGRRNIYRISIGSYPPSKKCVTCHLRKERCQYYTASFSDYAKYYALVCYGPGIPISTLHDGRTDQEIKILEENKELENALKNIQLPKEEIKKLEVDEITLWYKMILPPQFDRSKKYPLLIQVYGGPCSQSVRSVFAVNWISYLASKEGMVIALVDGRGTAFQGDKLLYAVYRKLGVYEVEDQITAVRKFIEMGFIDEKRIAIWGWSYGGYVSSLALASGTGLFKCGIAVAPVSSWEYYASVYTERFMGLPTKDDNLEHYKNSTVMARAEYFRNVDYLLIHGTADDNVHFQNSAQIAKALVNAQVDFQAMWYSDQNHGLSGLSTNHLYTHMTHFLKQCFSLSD

[2] = biological target: T2, cFAP (mixture of three FAP peptides) (human); assay: direct ELISA: coated mixture of three FAP peptides (cFAP)
T2 construct: A mixture of three separate peptides coated together, not a complex; The three chains are the three components; also called directly coated FAP peptides mixture
T2 peptide 1: HYIKDTVENAIQITS
T2 peptide 2: GWSYGGYVSSLALAS
T2 peptide 3: QVDFQAMWYSDQNHGL

[3] = biological target: T3, bovine serum albumin (BSA) (bovine, UniProt P02769 25-607); assay: direct ELISA: BSA coated directly on the plate
T3 construct: Negative control antigen in the ELISAs

[4] = biological target: T1, recombinant human Fibroblast Activation …; assay: capture ELISA: His-tagged rFAP captured by coated anti-His antibody (sFAP)
Method: For the capture ELISA, the microplates were coated with mouse anti-His monoclonal antibody (Clontech) diluted to a concentration of 3 μg/ml in PBS, the plates were then blocked, FAP or BSA were diluted to a concentration of 2 μg/ml in PBS and added to the plates to be captured. The binding efficiency of the antibodies was then tested.
The EC₅₀ values were estimated by a non-linear regression using GraphPad Prism (San Diego, USA) software.

[5] = biological target: T1, recombinant human Fibroblast Activation …; assay: direct ELISA: rFAP coated directly on the plate, antibody titrated, OD 450 nm
[6] = biological target: T4, recombinant human Dipeptidyl Peptidase 8 (DPP8) (human, UniProt Q6V1X1 1-898, limits assumed); assay: ELISA: enzyme held on the plate by an anti-tag antibody, HRP-labelled NI-206.82C2 titrated [continued) E]
T4 construct: Bought active enzyme; also called rhDPP8; BPS Bioscience 80080
Excerpt: (§1) Active recombinant human enzymes evaluated in this assay include: Fibroblast Activation Protein (FAP; Sino Biologicals, 10464-H07H), Dipeptidyl Peptidase IV (DPPIV, BPS Bioscience 80040), Dipeptidyl Peptidase 8 (DPP8, BPS Bioscience 80080), Dipeptidyl Peptidase 9 (DPP9, BPS Bioscience 80080), and Prolyl Oligopeptidase/Prolyl Endopeptidase (POP/PREP, BPS Bioscience 80105). Each recombinant peptidase was expressed with a purification tag, and attached to the 96 well ELISA plate using either a mouse anti-Histidine antibody (CloneTech), or a mouse anti-Glutathione S-transferase (GST, Sino Biologicals, 111213-MM02) tag antibody. […] H-Gly-Pro-AMC (ATT Bioquest, 13450) was used to validate the presence and activity of DPP4, DPP9, and DPP8. Z-Gly-Pro-AMC (BaChem, 11145) was used to evaluate the activity of FAP and POP/PREP. […] Following a washing step, bound antibody was detected using 3,3′,5,5′-Tetramethylbenzidine (TMB) substrate.

[7] = biological target: T1, recombinant human Fibroblast Activation …; assay: SPR (ProteOn): rhuFAP amine-coupled on a GLC chip, antibody injected at 106.7, 53.3, 26.7, 13.3 and 6.7 nM
Method: This was achieved by varying the concentration of the activation reagents used in each channel. Three activation solutions were prepared using a threefold serial dilution of a stock mixture containing 0.4 M EDC+0.1 M sulfo-NHS and injected for 360 s. Then rhuFAP at 2.5 μg/ml in coupling buffer (10 mM HEPES, 150 mM NaCl, 3.4 mM EDTA, 0.005% Tween 20, pH 5.2) was coupled for 1020 s at 25 μL/min. Excess reactive esters were blocked for 600 s with 1 M ethanolamine hydrochoride. […] serial dilution of […] starting at 16 μg/mL (106.7 nM) was injected for 400 s at 60 μL/min. A single injection delivered a full concentration series, using buffer to complete a row of six samples and provide an in-line blank for double-referencing the response data. Association and dissociation phases were measured for 400 s and 3600 s, respectively.

[8] = biological target: T1, recombinant human Fibroblast Activation …; assay: ELISA: rhFAP held on the plate by an anti-tag antibody, HRP-labelled NI-206.82C2 titrated, TMB, OD 450 nm [continued) E]
Excerpt: as §1

T3 sequence (P02769 25-607 limits assumed): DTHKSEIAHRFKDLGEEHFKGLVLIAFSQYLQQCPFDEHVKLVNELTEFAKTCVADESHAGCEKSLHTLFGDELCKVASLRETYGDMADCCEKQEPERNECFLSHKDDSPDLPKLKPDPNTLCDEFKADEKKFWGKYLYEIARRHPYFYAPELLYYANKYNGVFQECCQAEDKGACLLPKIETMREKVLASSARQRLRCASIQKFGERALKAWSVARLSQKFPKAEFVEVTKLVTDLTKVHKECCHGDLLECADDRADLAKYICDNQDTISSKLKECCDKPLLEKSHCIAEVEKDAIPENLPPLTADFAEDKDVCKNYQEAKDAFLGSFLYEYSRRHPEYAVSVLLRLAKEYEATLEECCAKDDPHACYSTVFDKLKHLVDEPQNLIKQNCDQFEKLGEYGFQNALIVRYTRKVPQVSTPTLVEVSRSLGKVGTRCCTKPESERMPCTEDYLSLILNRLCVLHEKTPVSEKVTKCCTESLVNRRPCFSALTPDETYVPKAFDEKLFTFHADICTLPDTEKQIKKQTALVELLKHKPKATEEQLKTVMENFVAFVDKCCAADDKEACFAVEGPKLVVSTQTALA
T4 sequence (Q6V1X1 whole entry): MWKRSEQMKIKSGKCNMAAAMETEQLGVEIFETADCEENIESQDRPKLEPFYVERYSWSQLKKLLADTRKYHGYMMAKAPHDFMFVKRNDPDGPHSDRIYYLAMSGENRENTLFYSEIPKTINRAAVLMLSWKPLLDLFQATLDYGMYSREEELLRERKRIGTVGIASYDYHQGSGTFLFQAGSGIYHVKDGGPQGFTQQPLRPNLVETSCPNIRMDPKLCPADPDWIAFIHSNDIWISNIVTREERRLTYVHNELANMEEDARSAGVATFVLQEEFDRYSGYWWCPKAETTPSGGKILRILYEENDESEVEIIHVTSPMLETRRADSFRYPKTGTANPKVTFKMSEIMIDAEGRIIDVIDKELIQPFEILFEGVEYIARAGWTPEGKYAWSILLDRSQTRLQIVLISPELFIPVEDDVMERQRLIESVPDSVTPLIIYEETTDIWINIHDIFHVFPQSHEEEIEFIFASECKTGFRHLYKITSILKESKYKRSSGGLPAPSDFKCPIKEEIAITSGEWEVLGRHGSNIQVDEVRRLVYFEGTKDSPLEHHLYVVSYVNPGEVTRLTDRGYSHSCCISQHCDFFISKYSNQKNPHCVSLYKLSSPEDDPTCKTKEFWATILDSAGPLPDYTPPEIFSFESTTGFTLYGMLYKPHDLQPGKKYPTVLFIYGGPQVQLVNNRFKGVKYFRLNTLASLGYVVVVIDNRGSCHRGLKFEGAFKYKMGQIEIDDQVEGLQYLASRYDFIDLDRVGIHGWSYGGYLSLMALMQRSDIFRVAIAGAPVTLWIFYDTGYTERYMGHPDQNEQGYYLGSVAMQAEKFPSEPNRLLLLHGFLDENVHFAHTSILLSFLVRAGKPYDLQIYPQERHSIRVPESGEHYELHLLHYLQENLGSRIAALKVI

EC50 [1]: 0.61 nM
binding result [2]: no binding
binding result [3]: no binding
EC50 [4]: 0.014 nM
EC50 [5]: 0.608 nM
binding result [6]: no binding
Kd [7]: 5.08 nM
koff [7]: 0.000861 s⁻¹
kon [7]: 173000 M⁻¹ s⁻¹
EC50 (read off the curve) [8]: ~0.05 nM
B1: NI-206.82C2 (antibody, V domains shown)
VH: QVQLQQSGPGLVKPSQTLSLTCAISGDSVSSNSVTWNWIRQSPSRGLEWLGRTYYRSKWYNDYAVSVKGRITINPDTSKNQFYLQLKSVTPEDAAVYYCARDSSILYGDYWGQGTLVTVSS
VL: QAVLTQPSSLSASPGASASLTCTLPSGINVGTYRIFWFQQKPGSPPQYLLSYKSDSDNHQGSGVPSRFSGSKDASANAGILLISGLQSEDEADYYCMIWHSSAWVFGGGTKLTVL
notes: Recombinantly expressed as complete human IgG1 with a lambda light chain; HRP-labelled in the homologue and sandwich ELISAs, Cy5-labelled in flow cytometry; also called HRP-labelled 82C2; Cy5 labelled 82C2
